Source: publication PMC4564306

B1: GAD-Exoc6b CT (domain or fragment)
chain: SDPNLVLDLKNLIVLFADTLQVYGFPVNQLFDMLLEIRDQYSETLLKKWAGIFRNILDSDNYSPIPVTSEEMYKKVVGQFPFQDIELEKQPFPKKFPFSEFVPKVYNQIKEFIYACLKFSEDLHLSSTEVDDMIRKSTNLLLTRTLSNSLQNVIKRKNIGLTELVQIIINTTHLEKSCKYLEEFITNITNVLPETVHTTKLYGTTTFKDARHAAEEEIYTNLNQKIDQFLQLADYDWMTGDLGNKASDYLVDLIAFLRSTFAVFTHLPGKVAQTACMSACKHLATSLMQLLLEAEVRQLTLGALQQFNLDVRECEQFARSGPVPGFQEDTLQLAFIDLRQLLDLFIQWDWSTYLADYGQPNCKYLRVNPVTALTLLEKMKDTSRKNNMFAQFRKNERDKQKLIDTVAKQLRGLI

Key:
LexA-Rab10 Q68L (mouse) = LexA-Rab10 Q68L (mouse) (UniProt P61027); assay: two-hybrid
[1] = molecular target: LexA-Rab10 wild-type (mouse) (UniProt P61027); assay: two-hybrid

| Molecule | 3-aminotriazole concentration that suppresses growth (LexA-Rab10 Q68L (mouse)) | 3-aminotriazole concentration that suppresses growth [1] |
| --- | --- | --- |
| GAD-Exoc6 CT (from UniProt Q8TAG9-1 384-797) (domain or fragment) | 1 mM | – |
| B1 | 50 mM | 1 to 5 mM |
